Reference: patent US20180244758A1
Changes are numbered by the printed parent chain. Names and notes keep the numbering of the source.

Molecular target: EBOV GP[change] (Ebola virus) (UniProt Q05320)
Sequence (Q05320 33-501, chain 1 of 2): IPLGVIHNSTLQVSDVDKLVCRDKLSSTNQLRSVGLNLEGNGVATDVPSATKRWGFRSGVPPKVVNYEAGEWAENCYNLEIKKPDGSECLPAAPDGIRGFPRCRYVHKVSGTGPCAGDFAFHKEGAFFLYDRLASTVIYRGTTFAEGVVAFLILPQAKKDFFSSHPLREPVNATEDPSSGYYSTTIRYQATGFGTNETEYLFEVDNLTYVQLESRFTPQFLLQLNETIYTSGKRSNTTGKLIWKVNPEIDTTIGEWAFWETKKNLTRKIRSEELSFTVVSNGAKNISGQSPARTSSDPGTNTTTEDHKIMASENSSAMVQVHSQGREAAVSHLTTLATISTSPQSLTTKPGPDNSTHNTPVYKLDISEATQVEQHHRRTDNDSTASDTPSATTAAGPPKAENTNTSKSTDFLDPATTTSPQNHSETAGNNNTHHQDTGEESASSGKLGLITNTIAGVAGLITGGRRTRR
Sequence (Q05320 502-650, chain 2 of 2): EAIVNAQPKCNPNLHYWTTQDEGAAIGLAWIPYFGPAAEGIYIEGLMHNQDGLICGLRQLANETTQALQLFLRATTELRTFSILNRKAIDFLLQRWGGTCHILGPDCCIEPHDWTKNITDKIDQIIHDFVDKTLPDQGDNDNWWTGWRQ

B1: mAb PE-87 (antibody, V domains shown)
VH: QVQLVQSGVTLVQPGGSLRVSCAASGFTFSSYAMSWVRQAPGKGLEWVSAISGLGGSTYYADSVKGRFTISRDNSKNTLYLQMNSLRAEDTAVYYCAKDHRVWAAGYHFDYWGQGALVTVSS
VL: DIVLTQSPSTLSASVGDRVTITCRASQSISSWLAWYQQKPGEAPKLLISDASSLESGVPSRFSGSGSGTEFTLTISSLQPDDFATYYCQQYYSSPTFGGGTKVEIK
Work on B1 yielded a Kd of under 0.001 nM.

B2: PE-87 H100A (antibody, V domains shown)
VH: B1 VH with H100A
VL: B1 VL
Binder B2 has a Kd of 4.5 nM.

B3: PE-87 R101A (antibody, V domains shown)
VH: B1 VH with R101A
VL: B1 VL
With B3 the Kd was 9.4 nM.

B4: PE-87 D110A (antibody, V domains shown)
VH: B1 VH with D110A
VL: B1 VL
B4 gave a Kd of 1.3 nM.

B5: PE-87 W103A (antibody, V domains shown)
VH: B1 VH with W103A
VL: B1 VL
Work on B5 yielded a Kd of 1.3 nM.

B6: PE-87 G106A (antibody, V domains shown)
VH: B1 VH with G106A
VL: B1 VL
B6 gave a Kd of 0.03 nM.

B7: PE-87 V102A (antibody, V domains shown)
VH: B1 VH with V102A
VL: B1 VL
In the case of B7, the Kd is reported as 4 nM.

B8: PE-87 Y107A (antibody, V domains shown)
VH: B1 VH with Y107A
VL: B1 VL
B8 gave a Kd of 30 nM.

B9: PE-87 H108A (antibody, V domains shown)
VH: B1 VH with H108A
VL: B1 VL
B9 showed a Kd of 18 nM.

B10: PE-87 D99A (antibody, V domains shown)
VH: B1 VH with D99A
VL: B1 VL
B10 gave a Kd of 74 nM.

B11: PE-87 F109A (antibody, V domains shown)
VH: B1 VH with F109A
VL: B1 VL
B11 was tested, and the Kd was 37 nM.

B12: PE-87 Y111A (antibody, V domains shown)
VH: B1 VH with Y111A
VL: B1 VL
B12 showed a Kd of 5.9 nM.
